For orientation: Kd means a measure of binding affinity in units of concentration. A lower Kd goes with higher affinity.

B2: DUSP3-WT (dual-specificity phosphatase 3) (enzyme, UniProt P51452 1-185, looked up)
chain: MSGSFELSVQDLNDLLSDGSGCYSLPSQPCNEVTPRIYVGNASVAQDIPKLQKLGITHVLNAAEGRSFMHVNTNANFYKDSGITYLGIKANDTQEFNLSAYFERAADFIDQALAQKNGRVLVHCREGYSRSPTLVIAYLMMRQKMDVKSALSIVRQNREIGPNDGFLAQLCQLNDRLAKEGKLKP
notes: DUSP3 (VHR), wild type, cDNA in pGEX-4T2 (Torres et al., 2017); Immobilised on a CM5 sensorchip; also called VHR; vaccinia virus H1-related phosphatase; source: E. coli BL-21 (DE3), purified (Glutathione-Sepharose 4B; GST removed by thrombin)

Non-standard residues stand in square brackets, D forms with d. No end group written: not given here. pY = N[C@@H](Cc1ccc(OP(=O)(O)O)cc1)C(=O)O

In test [1] the target is B2. Put plainly: SPR; Biacore T100; DUSP3-WT immobilised on CM5 sensorchip (3,000 RU); peptides 5-40 μM in HBS-N buffer; 25°C, 120 s association, 300 s dissociation, 10 μl/min; three independent experiments. The conditions noted are these: both partners purified. On the technique in general: In SPR one partner is held on a chip, and binding of the other changes the refractive index at the surface.

In another test the target is T1, ERK1 (UniProt P27361 1-379).
T1 construct: ERK1, cDNA in pGEX-4T2 donated by Prof; Rony Seger; The sentence on purification and on removal of GST names DUSP3 and NPM full length but not ERK1; source: E. coli BL-21 (DE3), purified recombinant protein
T1 sequence (P27361 whole entry): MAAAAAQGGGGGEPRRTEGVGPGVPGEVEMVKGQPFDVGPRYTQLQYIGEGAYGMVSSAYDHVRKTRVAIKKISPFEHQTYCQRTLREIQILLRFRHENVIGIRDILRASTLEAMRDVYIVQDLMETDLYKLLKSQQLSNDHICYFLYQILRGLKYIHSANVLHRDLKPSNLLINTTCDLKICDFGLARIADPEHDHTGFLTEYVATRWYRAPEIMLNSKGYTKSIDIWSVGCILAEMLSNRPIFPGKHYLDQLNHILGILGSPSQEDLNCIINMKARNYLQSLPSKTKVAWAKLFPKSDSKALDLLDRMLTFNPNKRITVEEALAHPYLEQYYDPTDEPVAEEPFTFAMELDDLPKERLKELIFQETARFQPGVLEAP
Briefly: SPR; Biacore T100; DUSP3-WT or DUSP3-C124S immobilised on CM5 sensorchip (200 RU); protein analytes 12.5-1,000 nM; kinetic assays at 25°C, HBS-EP buffer, 10 μl/min, 120 s association, 300 s dissociation; three independent experiments. The conditions noted are these: both partners purified.

B1: phospho-Y-decapeptide p-NPM(Y271) (peptide)
peptide: EAKFIN[pY]VKN
notes: Stretch of nucleophosmin around Y271; source: synthetic peptide, bought: Chinese Peptide Company
B1 showed a dissociation constant (Kd) in test [1] of 2070 nM.
For B2, in the test with ERK1, the dissociation constant (Kd) amounted to 178 nM.

B3: DUSP3-C124S mutant (phosphatase dead) (enzyme, UniProt P51452 1-185, looked up)
chain: MSGSFELSVQDLNDLLSDGSGCYSLPSQPCNEVTPRIYVGNASVAQDIPKLQKLGITHVLNAAEGRSFMHVNTNANFYKDSGITYLGIKANDTQEFNLSAYFERAADFIDQALAQKNGRVLVHSREGYSRSPTLVIAYLMMRQKMDVKSALSIVRQNREIGPNDGFLAQLCQLNDRLAKEGKLKP
notes: DUSP3 (VHR) with the catalytic cysteine 124 substituted by serine, cDNA in pGEX-4T2 (Torres et al., 2017); Immobilised on a CM5 sensorchip; source: E. coli BL-21 (DE3), purified (Glutathione-Sepharose 4B; GST removed by thrombin)
B3 came in with an equilibrium dissociation constant (Kd) in the test with ERK1 of 130 nM.

B4: phospho-Y-decapeptide p-NPM(Y67) (peptide)
peptide: AMN[pY]EGSPIK
notes: Stretch of nucleophosmin around Y67; source: synthetic peptide, bought: Chinese Peptide Company
In test [1], B4 yielded a Kd of 2010 nM.

B5: phospho-Y-decapeptide p-NPM(Y17) (peptide)
peptide: SPLRPQN[pY]L
notes: Stretch of nucleophosmin around Y17; source: synthetic peptide, bought: Chinese Peptide Company
The molecule B5 yielded a Kd in test [1] of 1620 nM.

B6: phospho-Y-decapeptide p-NPM(Y29) (peptide)
peptide: ADKD[pY]HFKVD
notes: Stretch of nucleophosmin around Y29; source: synthetic peptide, bought: Chinese Peptide Company
In test [1], B6 displayed a Kd of 2340 nM.

The values above are taken from paper PMC7991746, “Nucleophosmin Protein Dephosphorylation by DUSP3 Is a Fine-Tuning Regulator of p53 Signaling to Maintain Genomic Stability” (Frontiers in Cell and Developmental Biology, 2021).
